{"source": "paper PMC2063460", "tested_on": "Tus-LPETGG-His6 (sortase-immobilized on glycine-modified GMA beads) (Escherichia coli)", "experiment": "bead-based fluorescence binding (FACS)", "settings": "50 mM Tris-HCl, 250 mM KCl, 0.1 mM EDTA, 0.1 mM DTT, pH 9; temperature of binding not stated"}
{"substance": "TerB", "values": [{"measurement": "Kd", "result": 0.029, "unit": "µM"}]}
